Patent US20130336885A1 (Genentech, published 2013)

B1: humanized monoclonal antibody 8E11.v2 (antibody, human IgG1, kappa, V domains shown)
VH: EVQLVQSGAEVKKPGASVKVSCKASGYTFSAYWIEWVRQAPGQGLEWIGEILPGSDSTDYNEKFKVRATFTSDTSTSTVYLELSSLRSEDTAVYYCARGGHYGSLDYWGQGTLVTVSS
VL: DIVMTQSPDSLAVSLGERATINCRASESVDNYGNSFMHWYQQKPGQPPKLLIYLASNLESGVPDRFSGSGSGTDFTLTISSLQAEDVAVYYCQQNYEDPFTFGQGTKVEIKR
notes: It was assessed as an IgG; also called hu8E11.v2; hu8E11v2
B2: human antibody YW353 (antibody, human IgG1, kappa, V domains shown)
VH: EVQLVESGGGLVQPGGSLRLSCAASGFTFTSYSISWVRQAPGKGLEWVAEIYPPGGYTDYADSVKGRFTISADTSKNTAYLQMNSLRAEDTAVYYCAKARLFFDYWGQGTLVTVSS
VL: DIQMTQSPSSLSASVGDRVTITCRASQDVSTAVAWYQQKPGKAPKLLIYSASFLYSGVPSRFSGSGSGTDFTLTISSLQPEDFATYYCQQSYTTPPTFGQGTKVEIKR
notes: also called huYW353
B3: chimeric monoclonal antibody 8E11 (antibody, human IgG1, V domains shown)
VH: QVQLQQSGTELMKPGASVKISCKATGYTFSAYWIEWIKQRPGHGLEWIGEILPGSDSTDYNEKFKVKATFSSDTSSNTVYIQLNSLTYEDSAVYYCARGGHYGSLDYWGQGTTLKVSS
VL: NIVLTQSPASLAVSLGQRATISCRASESVDNYGNSFMHWYQQKPGQPPKLLIYLASNLESGVPARFSGSGSRTDFTLTIDPVEADDAATYYCQQNYEDPFTFGSGTKVEIKR
notes: also called ch8E11; chimeric 8E11

Columns and labels:
[1] = target: T1, gD epitope-tagged LgR5 424-907 (amino acids 424-907 of SEQ ID NO: 67) on transiently transfected 293 cells (human, UniProt O75473 424-907); experiment: FACS on transiently transfected 293 cells
T1 sequence: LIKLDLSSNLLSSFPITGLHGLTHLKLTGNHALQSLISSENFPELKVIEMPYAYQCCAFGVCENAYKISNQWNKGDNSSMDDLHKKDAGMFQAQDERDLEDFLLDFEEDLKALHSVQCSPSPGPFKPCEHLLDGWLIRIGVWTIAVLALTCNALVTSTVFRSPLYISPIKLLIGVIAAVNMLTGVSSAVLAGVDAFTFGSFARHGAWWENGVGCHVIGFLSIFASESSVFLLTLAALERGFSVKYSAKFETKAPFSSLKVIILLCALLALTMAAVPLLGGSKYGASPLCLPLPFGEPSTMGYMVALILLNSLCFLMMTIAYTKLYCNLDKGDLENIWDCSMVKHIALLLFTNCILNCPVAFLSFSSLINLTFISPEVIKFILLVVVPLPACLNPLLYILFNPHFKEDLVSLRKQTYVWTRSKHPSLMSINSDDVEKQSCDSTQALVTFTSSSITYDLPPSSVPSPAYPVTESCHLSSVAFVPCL

[2] = target: T2, gD epitope-tagged LgR5 324-907 (amino acids 324-907 of SEQ ID NO: 67) on transiently transfected 293 cells (human, UniProt O75473 324-907); experiment: FACS on transiently transfected 293 cells
T2 sequence: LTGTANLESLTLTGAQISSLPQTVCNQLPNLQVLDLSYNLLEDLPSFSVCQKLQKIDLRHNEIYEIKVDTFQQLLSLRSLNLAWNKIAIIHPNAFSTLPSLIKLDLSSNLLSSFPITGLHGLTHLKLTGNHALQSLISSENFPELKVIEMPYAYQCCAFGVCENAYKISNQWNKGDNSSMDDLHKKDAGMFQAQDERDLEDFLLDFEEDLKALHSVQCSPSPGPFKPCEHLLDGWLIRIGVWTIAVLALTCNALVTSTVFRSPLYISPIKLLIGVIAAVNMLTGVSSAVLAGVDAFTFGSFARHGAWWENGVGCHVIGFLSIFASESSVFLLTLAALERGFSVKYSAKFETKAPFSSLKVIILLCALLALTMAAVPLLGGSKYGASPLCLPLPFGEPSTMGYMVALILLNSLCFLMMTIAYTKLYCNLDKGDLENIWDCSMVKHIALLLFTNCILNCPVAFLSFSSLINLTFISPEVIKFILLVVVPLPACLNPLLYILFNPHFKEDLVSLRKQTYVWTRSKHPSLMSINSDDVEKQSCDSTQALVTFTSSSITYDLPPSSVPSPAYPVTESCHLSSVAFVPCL

[3] = target: T3, gD epitope-tagged human LgR5 (full-length) expressed on transfected 293 cells (human, UniProt O75473 22-907); experiment: Scatchard analysis, 125I-labelled antibody competed by unlabelled antibody on stably transfected 293 cells
T3 construct: also called gD-tagged human LgR5
T3 sequence: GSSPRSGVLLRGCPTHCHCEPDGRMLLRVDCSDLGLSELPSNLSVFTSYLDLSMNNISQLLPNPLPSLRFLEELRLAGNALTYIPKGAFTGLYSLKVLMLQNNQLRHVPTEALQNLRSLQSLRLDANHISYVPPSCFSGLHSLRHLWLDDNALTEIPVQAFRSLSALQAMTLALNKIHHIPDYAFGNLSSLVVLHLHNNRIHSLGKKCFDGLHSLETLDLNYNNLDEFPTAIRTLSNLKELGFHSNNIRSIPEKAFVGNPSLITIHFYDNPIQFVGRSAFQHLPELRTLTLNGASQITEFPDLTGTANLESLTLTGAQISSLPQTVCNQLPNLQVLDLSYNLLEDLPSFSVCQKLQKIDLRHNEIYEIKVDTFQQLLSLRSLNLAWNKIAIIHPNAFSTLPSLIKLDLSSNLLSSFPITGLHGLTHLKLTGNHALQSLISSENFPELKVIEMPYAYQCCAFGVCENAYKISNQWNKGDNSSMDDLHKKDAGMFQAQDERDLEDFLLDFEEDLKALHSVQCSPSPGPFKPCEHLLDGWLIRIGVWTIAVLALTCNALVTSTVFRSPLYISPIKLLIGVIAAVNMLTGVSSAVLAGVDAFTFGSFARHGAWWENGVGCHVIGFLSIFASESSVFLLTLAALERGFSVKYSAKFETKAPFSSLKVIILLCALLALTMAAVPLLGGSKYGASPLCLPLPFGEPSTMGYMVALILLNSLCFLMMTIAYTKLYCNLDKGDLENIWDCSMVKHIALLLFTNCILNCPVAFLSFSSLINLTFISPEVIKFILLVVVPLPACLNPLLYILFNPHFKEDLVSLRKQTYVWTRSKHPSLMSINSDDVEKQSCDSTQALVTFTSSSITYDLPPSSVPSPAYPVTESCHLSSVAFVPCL
Description: Scatchard analysis was performed following standard procedures (Holmes et al., Science 256:1205-1210 (1992)) to determine the relative binding affinities of YW353, ch8E11 and hu8E11v2 antibodies.
Anti-LgrS antibodies were [I¹²⁵] labeled using the indirect Iodogen method. […] Competition assay mixtures of 50 μL volume containing a fixed concentration of [I¹²⁵] labeled antibody and decreasing concentrations of serially diluted, unlabeled antibody were placed into 96-well plates. 293 cells stably expression human, rat, or mouse LgrS were cultured in growth media at 37° C. in 5% CO₂. Cells were detached from the flask using Sigma Cell Dissociation Solution and were washed with binding buffer, which consisted of Dulbecco's Modified Eagle Medium (DMEM) with 2% fetal bovine serum (FBS), 50 mM HEPES (pH 7.2) and 0.1% sodium azide. The washed cells were added to the 96 well plates at a density of 250,000 cells in 0.2 mL of binding buffer. The final concentration of the labeled antibody in each well was […]. The final concentration of the unlabeled antibody in the competition assay ranged from 500 nM through ten 2-fold diluation steps to a 0 nM buffer-only assay. Competition assays were carried out in triplicate. Competition assays were incubated for 2 hours at room temperature. After the 2-hour incubation, the competition assays were transferred to a Millipore Multiscreen filter plate (Billerica, Mass.) and washed 4 times with binding buffer to separate the free from bound [I¹²⁵] labeled antibody. The filters were counted on a Wallac Wizard 1470 gamma counter (PerkinElmer Life and Analytical Sciences Inc.; Wellesley, Mass.). The binding data was evaluated using NewLigand software (Genentech), which uses the fitting algorithm of Munson and Robard to determine the binding affinity of the antibody (Munson and Robard 1980)

Binder	binding result [1]	binding result [2]	Kd [3]
B1	no binding (tested: 10 µg/ml)	no binding (tested: 10 µg/ml)	
B2	no binding (tested: 10 µg/ml)	no binding (tested: 10 µg/ml)	0.2 nM
B3	no binding (tested: 10 µg/ml)	no binding (tested: 10 µg/ml)	0.4 nM
